Our source for the Kd and stoichiometry N values is PMC9820295.

Data set [1] relates to Dgeo_0257 (putative Dps, DgDps3) (Deinococcus geothermalis). The experiment in a line: EMSA. Conditions: no added metal; half-maximal shift, fragment not specified; EMSA 1x (from 5x stock): 20 mM HEPES pH 7.2, 32 mM KCl, 0.1 mM EDTA, 10% glycerol, 70 ng/uL BSA, 8 ng/uL poly(dI-dC), 2.5 mM DTT; 37 C 30 min; 6% native PAGE ….
For data set [2], the system named is DgDps1 (Dgeo_0281) (Deinococcus geothermalis). Put plainly: EMSA. Conditions: EMSA 1x (from 5x stock): 20 mM HEPES pH 7.2, 32 mM KCl, 0.1 mM EDTA, 10% glycerol, 70 ng/uL BSA, 8 ng/uL poly(dI-dC), 2.5 mM DTT; 37 C 30 min; 6% native PAGE ….
The target of data set [3] is DgDps1 (Dgeo_0281) (Deinococcus geothermalis) (UniProt Q1J1Q0). Put plainly: SEC; HiLoad 16/600 Superdex 75 prep grade; 25 mM Tris-HCl pH 7.5, 150 mM NaCl; size markers ferritin 440 kDa, conalbumin 75 kDa, ovalbumin 43 kDa, anhydrase 29 kDa; also run with 1 mM Fe2+ or Fe3+. A general note: In gel filtration, larger molecules generally elute earlier.

On to Dgeo_2112 ORF region, for which the dissociation constant (Kd) (as a rule, the free concentration of one partner at which half of the binding sites on the other are occupied at equilibrium, for simple one-to-one binding) in data set [1] was less than 4 µM; in data set [2] it was more than 40 µM.

For the substance “DgDps1 (Dgeo_0281) (from UniProt Q1J1Q0 1-222) (natural protein)”, the stoichiometry N (usually the number of molecules, sites or subunits per partner or assembly) in data set [3] amounted to 2. On to Dgeo_2112 promoter region, for which the Kd was less than 4 µM in data set [1] and more than 40 µM in data set [2].
